Laboratory results from PMC9352680, “A comprehensive thermodynamic model for RNA binding by the Saccharomyces cerevisiae Pumilio protein PUF4”.

T1: PUF4 RNA-binding domain (Saccharomyces cerevisiae, UniProt P25339 537-888)
T1 sequence: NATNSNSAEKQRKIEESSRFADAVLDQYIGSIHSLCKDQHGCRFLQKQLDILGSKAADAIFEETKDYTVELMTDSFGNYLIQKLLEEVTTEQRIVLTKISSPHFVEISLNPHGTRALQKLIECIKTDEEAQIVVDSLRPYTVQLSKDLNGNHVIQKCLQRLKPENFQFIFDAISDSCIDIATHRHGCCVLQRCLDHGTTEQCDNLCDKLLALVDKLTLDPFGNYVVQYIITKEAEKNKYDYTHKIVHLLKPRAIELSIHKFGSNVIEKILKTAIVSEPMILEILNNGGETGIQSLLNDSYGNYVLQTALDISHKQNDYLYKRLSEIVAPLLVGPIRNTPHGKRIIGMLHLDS


Molecular target: T1, PUF4 RNA-binding domain
Experiment: Mg; RNA-MaP; 20 mM Na-HEPES pH 7.4, 30 mM KOAc, 0.75 mM MgCl2, 0.1% Tween-20, 5% glycerol, 0.1 mg/mL BSA, 2 mM DTT; 25 C; 0.0125-409.6 nM protein
Conditions: tags: N-His6-TEV cleaved; C-SNAP kept, Cy3B-labelled; label: tethered on chip by stalled RNA polymerase

| Binder | Kd |
| --- | --- |
| UCUCUUUGUAAGUGUCUCUU (ssRNA) [Ic_S1_P3E.1_K3.1_C3.1_H3.1_A3.1_[T5A]_[A6G]_F3.1_[A8G]_T3.1] | 1820 nM |
| UCUCUUUGUAGUUGUCUCUU (ssRNA) [Ic_S1_P3E.1_K3.1_C3.1_H3.1_A3.1_[T5G]_[A6T]_F3.1_[A8G]_T3.1] | 1680 nM |
| UCUCUUUGUACGCAUCUCUU (ssRNA) [Ic_S1_P3E.1_K3.1_C3.1_H3.1_A3.1_[T5C]_[A6G]_F3.1_[T7C]_T3.1] | 872 nM |
| UCUCUUUGUACGUGUCUCUU (ssRNA) [Ic_S1_P3E.1_K3.1_C3.1_H3.1_A3.1_[T5C]_[A6G]_F3.1_[A8G]_T3.1] | 492 nM |
| UCUCUUUGUAACGGUCUCUU (ssRNA) [Ic_S1_P3E.1_K3.1_C3.1_H3.1_A3.1_[T5A]_[A6C]_F3.1_[T7G]_[A8G]_T3.1] | > 2300 nM |
| UCUCUUUGUACAAUUCUCUU (ssRNA) [Ic_S1_P3E.1_K3.1_C3.1_H3.1_A3.1_[T5C]_F3.1_[T7A]_[A8T]_T3.1] | 11.1 nM |
| UCUCUUUGUAAGCAUCUCUU (ssRNA) [Ic_S1_P3E.1_K3.1_C3.1_H3.1_A3.1_[T5A]_[A6G]_F3.1_[T7C]_T3.1] | > 2300 nM |
| UCUCUUUGUACUCCUCUCUU (ssRNA) [Ic_S1_P3E.1_K3.1_C3.1_H3.1_A3.1_[T5C]_[A6T]_F3.1_[T7C]_[A8C]_T3.1] | 384 nM |
| UCUCUUUGUAGUAUUCUCUU (ssRNA) [Ic_S1_P3E.1_K3.1_C3.1_H3.1_A3.1_[T5G]_[A6T]_F3.1_[T7A]_[A8T]_T3.1] | 86.2 nM |
| UCUCUUUGUACCAUUCUCUU (ssRNA) [Ic_S1_P3E.1_K3.1_C3.1_H3.1_A3.1_[T5C]_[A6C]_F3.1_[T7A]_[A8T]_T3.1] | 8.04 nM |
| UCUCUUUGUACCUUUCUCUU (ssRNA) [Ic_S1_P3E.1_K3.1_C3.1_H3.1_A3.1_[T5C]_[A6C]_F3.1_[A8T]_T3.1] | 34 nM |
| UCUCUUUGUACAAGUCUCUU (ssRNA) [Ic_S1_P3E.1_K3.1_C3.1_H3.1_A3.1_[T5C]_F3.1_[T7A]_[A8G]_T3.1] | 704 nM |
| UCUCUUUGUAAGUUUCUCUU (ssRNA) [Ic_S1_P3E.1_K3.1_C3.1_H3.1_A3.1_[T5A]_[A6G]_F3.1_[A8T]_T3.1] | 709 nM |
| UCUCUUUGUACAACUCUCUU (ssRNA) [Ic_S1_P3E.1_K3.1_C3.1_H3.1_A3.1_[T5C]_F3.1_[T7A]_[A8C]_T3.1] | 50.4 nM |
| UCUCUUUGUAGUCGUCUCUU (ssRNA) [Ic_S1_P3E.1_K3.1_C3.1_H3.1_A3.1_[T5G]_[A6T]_F3.1_[T7C]_[A8G]_T3.1] | > 2300 nM |
| UCUCUUUGUACCCUUCUCUU (ssRNA) [Ic_S1_P3E.1_K3.1_C3.1_H3.1_A3.1_[T5C]_[A6C]_F3.1_[T7C]_[A8T]_T3.1] | 59.5 nM |

| Binder | Kd |
| --- | --- |
| UCUCUUUGUACUUCUCUCUU (ssRNA) [Ic_S1_P3E.1_K3.1_C3.1_H3.1_A3.1_[T5C]_[A6T]_F3.1_[A8C]_T3.1] | 190 nM |
| UCUCUUUGUACCGCUCUCUU (ssRNA) [Ic_S1_P3E.1_K3.1_C3.1_H3.1_A3.1_[T5C]_[A6C]_F3.1_[T7G]_[A8C]_T3.1] | 989 nM |
| UCUCUUUGUACGCUUCUCUU (ssRNA) [Ic_S1_P3E.1_K3.1_C3.1_H3.1_A3.1_[T5C]_[A6G]_F3.1_[T7C]_[A8T]_T3.1] | 62.7 nM |
| UCUCUUUGUACUUUUCUCUU (ssRNA) [Ic_S1_P3E.1_K3.1_C3.1_H3.1_A3.1_[T5C]_[A6T]_F3.1_[A8T]_T3.1] | 19.5 nM |
| UCUCUUUGUACCCAUCUCUU (ssRNA) [Ic_S1_P3E.1_K3.1_C3.1_H3.1_A3.1_[T5C]_[A6C]_F3.1_[T7C]_T3.1] | 429 nM |
| Ia_S4_P5E.1_K5.1_C5.1_H5.1_A5.1_F5.1_[T9C]_T5.1 (ssRNA) RNA: UUUGACAACUGAUCGUUCUUUCUUGUAUUAUCAUUCUUUCUCGAUCAGUUGUCUUU | 72 nM |
| Ia_S4_P5E.1_K5.1_C5.1_H5.1_[A4C]_A5.1_F5.1_T5.1 (ssRNA) RNA: UUUGACAACUGAUCGUUCUUUCUUGUCUUAUUAUUCUUUCUCGAUCAGUUGUCUUU | 13.1 nM |
| Ia_S4_P5E.1_K5.1_C5.1_H5.1_A5.1_[T5C]_F5.1_T5.1 (ssRNA) RNA: UUUGACAACUGAUCGUUCUUUCUUGUACUAUUAUUCUUUCUCGAUCAGUUGUCUUU | 2.21 nM |
| Ic_S4_P5E.1_K5.1_C5.1_H5.1_A5.1_F5.1_[A10G]_T5.1 (ssRNA) RNA: UUUGACAACUGAUCGUUCUUUCUUGUAUUAUUGUUCUUUCUCGAUCAGUUGUCUUU | 11.8 nM |
| Ia_S4_P5E.1_K5.1_C5.1_H5.1_A5.1_F5.1_[T9A]_T5.1 (ssRNA) RNA: UUUGACAACUGAUCGUUCUUUCUUGUAUUAUAAUUCUUUCUCGAUCAGUUGUCUUU | 2.07 nM |
| Ia_S4_P5E.1_K5.1_C5.1_H5.1_[T1A]_A5.1_F5.1_T5.1 (ssRNA) RNA: UUUGACAACUGAUCGUUCUUUCUAGUAUUAUUAUUCUUUCUCGAUCAGUUGUCUUU | > 2300 nM |
| UCUCUUUGUAGUUUUCUCUU (ssRNA) [Ic_S1_P3E.1_K3.1_C3.1_H3.1_A3.1_[T5G]_[A6T]_F3.1_[A8T]_T3.1] | 403 nM |
| UCUCUUUGUACUUGUCUCUU (ssRNA) [Ic_S1_P3E.1_K3.1_C3.1_H3.1_A3.1_[T5C]_[A6T]_F3.1_[A8G]_T3.1] | 112 nM |
| UCUCUUUGUACUCAUCUCUU (ssRNA) [Ic_S1_P3E.1_K3.1_C3.1_H3.1_A3.1_[T5C]_[A6T]_F3.1_[T7C]_T3.1] | 445 nM |
| UCUCUUUGUACUAGUCUCUU (ssRNA) [Ic_S1_P3E.1_K3.1_C3.1_H3.1_A3.1_[T5C]_[A6T]_F3.1_[T7A]_[A8G]_T3.1] | 524 nM |
